Experiment: soluble on expression in E. coli; label from the status in PepcDB or PDB records

| Sequence | soluble on expression in E. coli |
| --- | --- |
| MGSDKIHHHHHHMTKREGGIKMAEKRRKRVVILGAAGRDFHNFNVFFRNNPEYEVVAFTATQIPDIEGRIYPPELAGELYPNGIPILPEDDLEKIIKEKDVDIVVFAYSDVSHEHVMHLASRAHSAGADFWLLGPKSTMIESKKPVVAVTAVRTGCGKSQTSRKVAQLLQEMGYKVAVIRHPMPYGDLRKQIVQRFASFEDLDRYECTIEEREEYEPYIERGMVVYAGVDYEKILREAEKEADIILWDGGNNDFPFYKPDLWIVVTDPHRPGHELTHHPGETNFRSADVIIINKIDTAYPENVQKIRENIEKVNPNAIVIEAASPIFVDKPELIKGKRVLVIEDGPTLTHGGMSYGAGYIAAKKFGAKEIVDPRPYAVGSIIETYKKYPHLSNILPAMGYGKKQIKELEETINRADADVVIMGTPVDLRRFMNLNKPAVRVKYELEEIGQPKLKDILEEWVKKCEKLKK | not soluble |
| MSPIVSVPDITAPVENVPAILPKVVPGELIVNKPTGGDSDELFQYLVDILASPVYDVAIESPLELAEKLSDRLGVNFYIKREDKQRVFSFKLRGAYNMMSNLSREELDKGVITASAGNHAQGVALAGQRLNCVAKIVMPTTTPQIKIDAVRALGGDVVLYGKTFDEAQTHALELSEKDGLKYIPPFDDPGVIKGQGTIGTEINRQLKDIHAVFIPVGGGGLIAGVATFFKQIAPNTKIIGVEPYGAASMTLSLHEGHRVKLSNVDTFADGVAVALVGEYTFAKCQELIDGMVLVANDGISAAIKDVYDEGRNILETSGAVAIAGAAAYCEFYKIKNENIVAIASGANMDFSKLHKVTELAGLGSGK | soluble |
| MRSRHDTYNNDCDRTLVIMAQRTLAYIVSRRQSASGFTTTARARRWHV | not soluble |
| QSFRAIQLSDLHIGGLIEEHYMEALGERINALKPDMIFLTGDITDASCEQIRTPLEKLKALQAPLGIYFVSGNHEFFHGIQKTMDFLREMGIVVLENDSRTIEGLVNIAGVHDLFGRRIGFLEPDLEQALYGIDPSLPTILLAHQPKFAKEALGYPVDLILSGHTHGGQIAPFGLLVR | not soluble |
| MSDQPRPTVIITGASSGVGLYATKALANRGWHVIMACRNLEKAEQAAKNLQIPPEAYTILHLDLSSLASVRGFVESFRALNRPLRALVCNAAVYYPLLKEPIYSVDGYEITVATNHLGHFLLINLLLEDLKNSPESDKRLVILGTVTANRKELGGKIPIPAPPDLGNLEGFEKGFKKPIAMINGKPFKSGKAYKDSKLCNMLTARELHRRFHESTGIVFNSLYPGCVADTPLFRHHFPLFQKLFPLFQKKITGGYVSQELAGERVAMVVADPEFRQSGVHWSWGLEHHHHHH | soluble |
| MPATPVPPVTMPPVPPVGFPPVTAPPGLHPPPPVPPVPVPTLPVTSEHKTAHDACIKRLEQLEIPPDPKIYPSPTEPGTFGSVTEVLTNVFGVEVHKTSNFYQYSVHITAELSSKKEVTFTKKGKEDFIVHDRHEKCSAILFHALNRFEDFFKSSENCIIYDGQSILFTSMNLFEGIPTGKIKTKVFQINGADTNLKDLMVLPCIKLEVFPTKNPVVNFSLEDIGRRTSDSNIESVNMAYKQILDLAMSQYAIRETSKCVVFEHGKMFFINPLQEGYAPCDIVEVGDGKQMKPGLKKTLQFIEGPYGRNQNNPSIVIDGMKVAFHMEQLVFQKLSSITSNLANGITGSERERCAAVIKGLDCHSNYRGRTRHHKIESIHHEGAATARFELEGGGTCTVATYFKDKYKIQLRYPNANLIVCKERGALNFYPMELITISPNQRVRITQQTSSQSQRTTKESAVLPDIRQRLIMTGKIAAKITAENEVLGKMGVTVCDEPLVVKGRNLPAIRLASFETGEHLINPRDCKWRPQRYNRSAVAPKVWALYGVGSPGSQMNRDVMRRFCDEFMNMSRSKGILFPPPGDVNLLTPDAIENRLREAANAGCTFVLCITEDNITCLHQKYKFIEHHTQMIVQDMKLSKALSVVNASKKLTLENVINKTNVKLGGSNYVYLDTKNFLQEHLIIGVGISSPPPGTKYIMESRGILNPTIVGFAYNGNGKQEFSGDFVLNAAGQETIAPIEDIVSYSIKGYKKFHDGKAPKRITIYRSGSSEGNHGPIISYEVPLARVAMRNFSPDTQLLYIVVSKEHTYRFFKKESGGSSSGGSNSAGASNSGTLTSAPPKPWELNIGPGLTVDYGVTNPACKQFFLNSHMTLQGSAKTPLYTVLADDRNIGMSALEEFTFNLCHLHQIVGLPTSIPTPLYVANEYAKRGRNLWNEAINANEIPEVTGPESARLKKMTDGISYMGSGDMIDRRVNA | not soluble |
| MSIKIKNAVEIEKMRVAGRLAAEVLEMIEPHVKAGVTTEELDQICHKYITEVQGAIPAPLNYHGFPKSICTSINHIVCHGIPASEDTYFGQIQRPAVLRDGDILNIDITVIKDGYHGDTSKMFLIGDVSIEDKRLCHVAQECLYLALKQVKPGVQLGEIGTTIEKHIKTNNKNNPRFKFSIVRDYCGHGIGAEFHEEPQVVHYKNSDRTVLREGMIFTIEPMINAGKFGCRLDDEDSWTVYTADGKKSAQWEHTILVTATGCEILTLRSEESLPRILNNA | not soluble |
| MKYCDFNGCHNKISKGRYCEEHKRNKPRKKKDKKNIYHHENKPFYRTDAWKFVRSKVYERENGCCQRCGRFVFGRRAHVHHVIPIKEDPILKLEENNLRLLCPVCHTIEENEDKPKKVFPSYFGSPPIKNLEHHHHHH | soluble |
| MVFDKLLEQAGINLEFEDKEIKDSDYLGDVSDLIKIAVIGVGGSGNNTISRLYDLGVQGADLIAMNTDAQHLHQIKAHKKLLLGKSITHGKGSGGDPRIGYRAAEASASEIADIVKDYDLIFLTAGMGNGTGTGATPVIARIIKETARNNGLPQEPLVISVVTFPFKMEGKVRIEKAKAGIEMLLEYSDTVIIIQNDKLIELVPKLPIQVAFRFADEIIARMVKGIVETIKLPSMVNIDYADIYSVMKGGGPALIGIGESDSNNRAVDAVMEALNNKMLDIEFGSGDKALVHFTVGPDVSLEEITKAMEIVYERLGEKSEIKWGAMIEEDMGKTVRAMVIMTGVRSPQILGNINVNALTYSSSSLVVPRDSKIMSESKVDEIFSSIDPRASKLRKGNNSSRINKIFKDLGFYEL | soluble |
| MKTVSQLIDMKQKQTKISMVTAYDFPSAKQVEAAGIDMILVGDSLGMTVLGYESTVQVTLADMIHHGRAVRRGAPNTFVVVDMPIGAVGISMTQDLNHALKLYQETNANAIKAEGAHITPFIEKATAIGIPVVAHLGLTPQSVGVMGYKLQGATKEAAEQLILDAKNVEQAGAVALVLEAIPNDLAEEISKHLTIPVIGIGAGKGTDGQVLVYHDMLNYGVEHKAKFVKQFADFSVGVDGLKQYDQEVKSGAFPSEEYTYKKKIMNEVNNNDLEHHHHHH | soluble |
| MGHVSNSPFSVDVLVVGGGPAGSAAAIHAAKAGYSVLLIDAQPFPRDKTCGDGLTPRAVHQLEALGVDVTSRYRSFGLKLHGFGGSVTVPWPESHFGQVSSAMPRMKFDAMLWEMAAQHATTWTATASEVEIDSAIRSVTMSDGRVVKPRSVIVADGVRSTFGKLLGRTWHRGEVYGIAARSYCTTPRSTEPWMHSHLELRDDSTTLPGYGWIFPIGDGTANVGCGALSTDKRPAKINTKKLLRHYASQQTDWEFGTPQRVASALLPMGGAVSTIAGPNWMLIGDAAACVNPLNGEGIDYGLETAALAVAHLDNPLEWPHILRETYGEAFLLARTAARLLTYPQFLPLTGPIALRTPLMASAARLMGNLVTEEDKDIVARAWRAAGWGVTKIRGGSPLWDLEHHHHHH | not soluble |
| MLIWSPSVRIAANIRTDNPNSLKRNANMPQLTLDKTDIKILQVLQENGRLTNVELSERVALSPSPCLRRLKQLEDAGIVRQYAALLSPESVNLGLQAFIRVSIRKAKDAREDFAASVRKWPEVLSCFALTGETDYLLQAFFTDMNAFSHFVLDTLLSHHGVQDAQSSFVLKEIKHTTSLPLNHLLKE | not soluble |
| VAFTEKQDALVSSSFEAFKANIPQYSVVFYTSILEKAPAAKDLFSFLANGVDPTNPKLTGHAEKLFALVRDSAGQLKASGTVVADAALGSVHAQKAVTDPQFVVVKEALLKTIKAAVGDKWSDELSRAWEVAYDELAAAIKKA | soluble |
| MGSDKIHHHHHHMQSSSTLFPVALLSAERRGDLSEDVYRIKAGNGPDPSVELAITRLGLADQAQAQGVPVILLHGSFSNRRFWYSPKGVGLGAYLARAGFDVWIPEMRGHGLSPRNHDWKHNSVAAYARDDLPLINAFVREQSGQAPHWVGHSLGGTTLVAALGGGFLAAEQLASVALFGTQISRVYWPLKVPPLAWGAKLVLKRWGQISGPRFKRGPEDEPIGLALESMRWHGLFGRFGDKQNDWWAGLAEVDVPLLAVAGAGDFQDPVWACRKLFEQLGGERKQFLRLGREEGFEAFGHVDMLVSKAAQVQVWPLVERWLHNPLLPVHASTVVAEPVPAS | not soluble |

Source: the DeepSol protein solubility set
